Reference: the supplement of paper PMC10266784

B1: library; numbered along this chain (parent)
chain: MAAAAAAAAEQQSSNGPVKKSMREKAVERRSVNKEHNSNFKAGYIPIDEDRLHKTGLRGRKGNLAICVIILLFILAVINLIITLVIWAVIRIGPNGCDSMEFHESGLLRFKQVSDMGVIHPLYKSTVGGRRNENLVITGNNQPIVFQQGTTKLSVENNKTSITSDIGMQFFDPRTQNILFSTDYETHEFHLPSGVKSLNVQKASTERITSNATSDLNIKVDGRAIVRGNEGVFIMGKTIEFHMGGNMELKAENSIILNGSVMVSTTRLPSSSSGDQLGSGDWVRYKLCMCADGTLFKVQVTSQNMGCQISDNPCGNTH

Variants of: B1
Test: SGCB cell-surface expression functional score (HA stain, bin4 vs bin1, normalised to synonymous) (log10 ratio); higher = more cell-surface SGCB (functional)
In short: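 HEK293 cells stably expressing alpha-, gamma- and delta-sarcoglycan received codon-saturation libraries of HA-tagged, YFP-fused human beta-sarcoglycan by lentiviral transduction at MOI <0.1, performed in duplicate. Cells positive for YFP were sorted after 72 hours and cultured for 5–7 days, then stained on ice with Alexa Fluor 647 anti-HA and fixed. Fixed cells were sorted into four 5% intensity bins and amplicon-sequenced, and the log ratio of highest-bin to lowest-bin variant frequency, as a median over codons and transductions, gives the functional score. Per section, synonymous variants were scaled to mean 0, SD 0.5.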

SGCB cell-surface expression functional score (log10) of substitutions, site by site:
V300: Y -0.33 | H -0.8 | M -1.6 | R -0.27 | S -0.35 | N -0.77 | K -2.02 | P -0.35 | Q -1.07 | T 0.05 | G -0.65 | L -1.14 | W -0.26 | I -0.28
G306: M -1.83 | N -0.83 | A -0.83 | S -0.32 | D -0.69 | K -0.17 | C -0.99 | L -0.44 | E -0.55 | V -0.76 | I -0.62 | F -0.43 | Q -0.33 | W -1.81 | T -0.64 | P -1.24 | H 0.17 | Y -1.16 | R -0.84
T317: R -0.1 | K 0.5 | L -0.33 | H -0.39 | E -0.34 | A -0.21 | D -1.71 | S 0.15 | N 0.08 | Q 0.03 | M -0.28 | I 0.05 | G 0.44 | F 0.01 | C 0.17 | P -0.04
C307: L -0.21 | K 0.23 | I -1.65 | F -0.36 | V -1.17 | M -0.59 | T -0.77 | Q 0.09 | G -0.44 | A -0.28 | W -0.24 | Y 0.26 | E -0.34 | N -0.37 | D 0.04 | P -0.28 | S -0.41 | R -0.37 | H -0.89
N316: W -0.12 | R 0.15 | Q 0.13 | A -0.18 | E -0.68 | G -0.83 | T 0.37 | H 0.47 | Y 0.39 | V -0.19 | F 0.15 | D 0.19 | P 0.29 | M 0.48 | I -0.06 | K 0.03 | S -0.05 | C 0.11 | L -0.05
Q308: R 0.12 | H -0.29 | I -0.15 | L -0.83 | T -0.05 | A -0.46 | W -0.34 | E 0.05 | M 0.09 | F -0.31 | D 0.17 | G -0.76 | S -0.37 | K -0.5 | V -0.04 | C -0.4 | Y 0.02 | P -1.21 | N -0.38
N312: Y 0.54 | C -0.41 | L 0.12 | H -0.15 | S 0.08 | T 0.06 | G -0.13 | R 0.27 | D 0.1 | I 0.12 | F 0.03 | P -0.09 | M 0.01 | E 0.35 | V 0.13 | W 0.57 | K 0.25 | A -0.03 | Q -0.46
C314: I -0.11 | S -0.27 | V 0 | T -0.78 | Y -0.32 | E -0.03 | A 0.07 | M -1.88 | D 0.34 | N -0.61 | H -0.18 | F -0.43 | Q 0.15 | L -0.5 | R -1.01 | K 0.06 | P -0.09 | G -0.29 | W 0.19
D311: P -0.48 | C 0.1 | S -0.06 | T -0.93 | N 0.01 | V 0.04 | I 0.18 | Q -0.87 | W 0.22 | H 0.31 | F 0.43 | G 0.11 | E -0.14 | K -0.22 | R 0.34 | Y -0.64 | A 0.29 | L 0.05 | M 0.69
N304: Y -0.11 | W 0.2 | K 0.07 | D -0.34 | H 0.26 | Q -0.11 | R -0.41 | I -0.42 | P -0.2 | V -1.11 | M -1.75 | A -0.43 | E 0.56 | S -0.45 | F -0.09 | C -0.06 | L -0.14 | T -0.51 | G 0.09
M305: Q -0.28 | C -0.18 | D -0.25 | P -0.21 | W -0.29 | Y -1.05 | F -0.74 | G -0.51 | R -0.25 | E 0.04 | L -0.06 | S -0.39 | N -1.05 | T 0.02 | V -0.22 | I 0.19 | H -0.9 | K 0.09 | A -0.71
I309: E -0.14 | Y -0.22 | S 0.1 | P -0.24 | L 0.13 | T 0.29 | V -0.63 | Q -0.01 | R 0 | C -1.19 | K -0.24 | A 0.27 | H -0.32 | G -0.41 | M -0.08 | W 0.15 | F -0.22 | N 0.02 | D -1.61
Q303: G 0.2 | D 0.36 | F 0.11 | R -0.45 | K -0.33 | V 0.37 | T -0.46 | E 0.08 | Y -0.3 | N -0.9 | A -0.65 | C 0.15 | H 0.07 | S -0.43 | M -0.16 | I 0.25 | P 0.04 | L -0.16 | W -0.98
G315: A -0.11 | E 0.04 | R 0.03 | W 0.43 | K -0.14 | I -0.24 | V -0.01 | P -0.04 | Q 0.1 | C -0.05 | F -0.43 | N 0.02 | T 0.15 | Y 0.26 | H 0.04 | L -0.02 | D -0.41 | M 0.54 | S -0.28
S302: A -0.01 | I 0.38 | H 0.54 | N -1.18 | K 0.45 | L -0.93 | M -1.5 | T -1.04 | F 0.61 | Y -0.06 | V 0.35 | D -1.03 | R 0.1 | E -0.24 | W -0.56 | C -0.53 | Q -1.84 | P -0.74 | G -0.36
T301: A -0.27 | N -0.45 | Y 0.14 | V -0.21 | K 0.28 | P -0.57 | R -0.14 | F -0.72 | C 0.31 | G 0.13 | L -0.56 | S -0.16 | I -0.29 | E 0.06 | M 0.86 | Q 0.16 | D 0.33 | H -0.15 | W 0.96
S310: L 0.07 | G 0.34 | A -0.09 | K 0.24 | H -0.5 | E -0.2 | W 0.98 | M -0.01 | T -0.25 | V 0.14 | Y 0.49 | P -0.54 | R -0.02 | I 0.04 | F 0.06 | Q 0.27 | D -0.01 | N 0.59 | C -0.2
P313: C 0.15 | D -0.42 | A 0.41 | M -0.49 | Q -0.3 | T 0.06 | K -0.22 | I -0.92 | Y -0.27 | V 0.23 | E 0.11 | L -0.14 | H -0.07 | W -0.38 | S -0.17 | F -0.03 | R -0.02 | G -0.17 | N 0.01
